Results from US20130095071A1, “METHOD OF TREATING OR PREVENTING HEARING LOSS” (Audigen Inc., priority 2009, published 2013).

Columns and labels:
[1] = Safety of enzyme digestion of RWM: ABR before and after surgery; format: in vivo, guinea pig; conditions: 12 ears, 2-4 weeks after surgery
Procedure: (§1) The reaction time was 10 minutes.
ABR was tested in animals underwent gene transfection before and just before the animal was killed for morphology.
(§2) The transfection is through intact round window membrane (RWM). Under appropriate anesthesia, a cut of 2 cm is made posterior to the earlap and the soft tissue is distracted to expose the mastoid. The round window of the guinea pig is exposed by drilling a small hole of 2-3 mm in diameter on the mastoid. Solution of collagenase II is freshly prepared at concentration of 150 units/ml. With the help of a microinjection pump, a total of 10 μl enzyme solution is applied to the round window niche at a flow rate of 10 nl/sec. After reaction time of 10 minutes, residual enzyme solution is sucked out first using suction pump and then use gelfoam. A piece of gelfoam (2-3 mm^3) is placed upon RWM and then 5 μl AAV-GFP is applied to the gelfoam. The hole of mastoid is covered by suturing the soft tissue. Hearing status is evaluated using audiotory brainstem response (ABR).

[2] = SEM/TEM examination of round window membrane after enzyme digestion
Procedure: Under appropriate anesthesia, the round window of the guinea pig was surgically exposed and inspected visually under a surgical microscope. Freshly prepared collagenase solution of 2-3 ul was applied to the round window niche with the help of a microinjection pump. The reaction time was 10 minutes. The residual solution was then sucked out and the RWM was washed with saline. The collagenase was used at a concentration of between 50 unit/ml to 200 unit/ml. In one example, the concentration used was 150 unit/ml. In the example provided here, the collagenase was collagenase from Clostridium histolyticum, Type II (available from Sigma).
To evaluate the damage of the digesting solution on RWW, the animal was killed immediately after the digestion and the cochleae were taken out and fixed with standard protocol for electronic microscopy. To evaluate if the damaged RWM heals spontaneously, some other animals were allowed to survive for 3 weeks before the RWMs were taken for examination.
Under deep anesthesia with an overdose of pentobarbital (100 mg/kg), the animal was decapitated and the temporal bone was rapidly removed and the cochlea extracted. To examine the RWM, the cochlea was immersed into a fixative of 2.5% glutaraldehyde overnight at 4° C., and post fixed in 2% OsO4 for 2 hours. […]

cochlear hair cells = test: Enzyme facilitated cochlear gene transfection with AAV through round window membrane; format: in vivo, guinea pig; conditions: after digestion of RWM
Procedure: as §1
For inner ear gene transfection, a piece of gelfoam (1-2 mm^3) was placed gently on RWM. 5 ul AAV solution was applied to the gelfoam. The cochlea was taken out for cochlea immunostaining against GFP 2-4 weeks after the surgical application of AAV vectors.
as §2, with “A piece of gelfoam (2-3 mm^3) is placed upon RWM and then 5 μl AAV-GFP is applied to the gelfoam. The hole of mastoid is covered by suturing the soft tissue.” left out
The transfection is evaluated 2 weeks after the surgery. […] GFP positive hair cells are counted along the length of the cochlear duct. […]
A post-auricular approach was used to expose the tympanic bony bulla. […] The duration for the digestive treatment varied from 5 to 10 minutes and the quantity of the digestive solution 5 to 10 μl. […]

collagenase
ABR threshold shift ([1]; 32, 48 kHz): less than 15 dB
hearing loss ([1]; other frequencies tested): no hearing loss
damage to RWM (SEM, TEM) ([2]; 3 weeks after the treatment): no difference from normal control
damage to RWM (SEM, TEM) ([2]; immediately after the treatment): causes damage to the epithelia facing middle ear
permeability of RWM to AAV (cochlear hair cells): makes RWM permeable to AAV
